Biological target: T1, FKHR (Homo sapiens, UniProt Q12778)
T1 construct: made in house; host or cells: in vitro translation
Assay: In vitro interaction with in vitro translated FKHR
Type: binding
Settings: GST fusion constructs

T1 sequence (Q12778 whole entry, species assumed): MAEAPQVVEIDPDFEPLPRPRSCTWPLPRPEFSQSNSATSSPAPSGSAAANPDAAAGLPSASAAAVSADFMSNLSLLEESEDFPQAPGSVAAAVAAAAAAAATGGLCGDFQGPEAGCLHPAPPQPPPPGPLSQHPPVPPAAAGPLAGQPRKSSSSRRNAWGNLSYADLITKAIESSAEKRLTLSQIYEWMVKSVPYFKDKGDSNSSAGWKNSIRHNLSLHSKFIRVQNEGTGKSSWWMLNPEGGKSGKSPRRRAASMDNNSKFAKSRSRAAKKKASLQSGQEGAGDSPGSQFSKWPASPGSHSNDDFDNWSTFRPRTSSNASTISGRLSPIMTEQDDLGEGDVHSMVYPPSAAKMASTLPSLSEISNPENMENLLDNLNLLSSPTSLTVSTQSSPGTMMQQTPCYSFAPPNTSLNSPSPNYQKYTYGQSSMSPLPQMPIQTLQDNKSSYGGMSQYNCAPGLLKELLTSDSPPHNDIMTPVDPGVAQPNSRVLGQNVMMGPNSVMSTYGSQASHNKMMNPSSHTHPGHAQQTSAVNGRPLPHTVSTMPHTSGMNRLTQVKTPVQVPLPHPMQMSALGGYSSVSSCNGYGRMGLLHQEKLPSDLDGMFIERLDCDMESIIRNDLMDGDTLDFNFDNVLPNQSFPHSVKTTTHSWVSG

physical interaction with FKHR: not
B1: GST-PGC-1 (amino acids 1-190): GST fusion protein of amino acids 1-190 of PGC-1 (SEQ ID NO:2) (protein)
chain: MAWDMCSQDSVWSDIECAALVGEDQPLCPDLPELDLSELDVNDLDTDSFLGGLKWCSDQSEIISNQYNNEPANIFEKIDEENEANLLAVLTETLDSLPVDEDGLPSFDALTDGAVTTDNEASPSSMPDGTPPPQEAEEPSLLKKLLLAPANTQLSYNECSGLSTQNHAANHTHRIRTNPAIVKTENSWSN
modifications: left off: a dimerising Fc or GST

Source: patent publication US7371529B2, “Methods and compositions for modulating gluconeogenesis using PGC-1” (Dana-Farber Cancer Institute, Inc., priority 2001, dated 2008)
